Results from article PMC4554459, “Paracoccus denitrificans possesses two BioR homologs having a role in regulation of biotin metabolism”.

T1: BioR2 (Paracoccus denitrificans PD1222, UniProt A1B662 1-221)
T1 sequence: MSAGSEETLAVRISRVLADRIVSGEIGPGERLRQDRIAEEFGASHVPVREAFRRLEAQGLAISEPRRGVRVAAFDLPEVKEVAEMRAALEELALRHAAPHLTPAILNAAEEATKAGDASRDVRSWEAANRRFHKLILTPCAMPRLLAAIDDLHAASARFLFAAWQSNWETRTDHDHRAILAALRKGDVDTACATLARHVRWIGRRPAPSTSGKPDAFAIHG


Assays:
BioR2 [1] = biological target: T1, BioR2; experiment: EMSA; ~0.2 pmol DIG-labeled probe with BioR (10-20 pmol BioR2 in 15 uL, Fig. 6) in Roche binding buffer, 15 min, room temperature; native 7% PAGE; salt and pH of binding buffer not stated (protein in PBS pH 7.4, 10% glycerol); details: protein: recombinant; tags: 6xHis (pET28a); chain copies: 2; label: digoxigenin; blunt
BioR2 [2] = biological target: T1, BioR2; experiment: EMSA; pimeloyl-ACP (no effect); ~0.2 pmol DIG-labeled probe with BioR (10-20 pmol BioR2 in 15 uL, Fig. 6) in Roche binding buffer, 15 min, room temperature; native 7% PAGE; salt and pH of binding buffer not stated (protein in PBS pH 7.4, 10% glycerol); details: protein: recombinant; tags: 6xHis (pET28a); chain copies: 2; label: digoxigenin; blunt
BioR2 [3] = biological target: T1, BioR2; experiment: competition; cold probe 10, 20, 50 pmol vs 0.2 pmol DIG-bioBFDAGC; ~0.2 pmol DIG-labeled probe with BioR (10-20 pmol BioR2 in 15 uL, Fig. 6) in Roche binding buffer, 15 min, room temperature; native 7% PAGE; salt and pH of binding buffer not stated (protein in PBS pH 7.4, 10% glycerol); details: protein: recombinant; tags: 6xHis (pET28a); chain copies: 2; blunt

Binder | binding result (BioR2 [1]) | other results
bioR1_pd probe (dsDNA) DNA 1: GGTGCAGCATGAATTATCTATAATTCATGAAACACG DNA 2: CGTGTTTCATGAATTATAGATAATTCATGCTGCACC | binds | 
bioBFDAGC_pd probe (dsDNA) DNA 1: GGCGCTGACCGTTTTATAGATACTTCCACATGAGGC DNA 2: GCCTCATGTGGAAGTATCTATAAAACGGTCAGCGCC |  | binding result (BioR2 [2]): binds
cold bioBFDAGC_pd probe (dsDNA) DNA 1: GGCGCTGACCGTTTTATAGATACTTCCACATGAGGC DNA 2: GCCTCATGTGGAAGTATCTATAAAACGGTCAGCGCC |  | binding result (BioR2 [3]): binds
bioYB_pd2 probe (dsDNA) DNA 1: CAAAGCCTTCGTAATTATAGATAGACTCGATACCTATC DNA 2: GATAGGTATCGAGTCTATCTATAATTACGAAGGCTTTG | binds | 
bioYB_pd1 probe (dsDNA) DNA 1: GATTCCCGGATAATTATCTATAAACCTAATTGCCAG DNA 2: CTGGCAATTAGGTTTATAGATAATTATCCGGGAATC | binds | 
bioBFDAZ_at (bioB_at) probe (dsDNA) DNA 1: CTCTCTTGAGGAGGCAAAAATTATCTATAATTTGCCATTTAACGACCTGC DNA 2: GCAGGTCGTTAAATGGCAAATTATAGATAATTTTTGCCTCCTCAAGAGAG | binds | 
